{
  "source": "patent US20120258099",
  "key": {"GST-TRIPE32G": {"test_system": "T1, GST-TRIPE32G", "T1 sequence": "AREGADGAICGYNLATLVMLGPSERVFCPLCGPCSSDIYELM"}, "GST-TRIPT16M/L17S": {"test_system": "T2, GST-TRIPT16M/L17S", "T2 sequence": "T1 sequence with T16M, L17S, G32E"}, "GST-TRIPα": {"test_system": "T3, GST-TRIPα", "T3 sequence": "T1 sequence with G32E"}},
  "note": "Residue numbers refer to the chain shown, from its start.",
  "data": [
    {"substance": "MBP-Tgat (aa 1-255)", "values": [
      {"measurement": "Tgat GEF activity on RhoA, kinetics fluorescence assay (kobs)", "setting": "GST [GST: P08515]", "value": "GST alone (not shown) ... had no effect"},
      {"measurement": "Tgat GEF activity on RhoA, kinetics fluorescence assay (kobs)", "setting": "GST-TRIPE32G", "value": "inhibited Tgat GEF activity in a dose-dependent manner"},
      {"measurement": "Tgat GEF activity on RhoA, kinetics fluorescence assay (kobs)", "setting": "GST-TRIPT16M/L17S", "value": "inhibited Tgat GEF activity in a dose-dependent manner"},
      {"measurement": "Tgat GEF activity on RhoA, kinetics fluorescence assay (kobs)", "setting": "GST-TRIPα", "value": "GST-TRIPα, at the same concentrations, had no effect"}
    ]}
  ]
}
